This note sets out measurements from publication PMC3585358, “Identification and Multidimensional Optimization of an Asymmetric Bispecific IgG Antibody Mimicking the Function of Factor VIII Cofactor Activity” (PLoS ONE, 2013).

For one test, the target named is T1, human factor IXa (Homo sapiens, UniProt P00740).
T1 construct: also called FIXa; source: bought: Enzyme Research Laboratories (purified human coagulation factors; the source is stated for the enzymatic assay)
The test can be described thus: SPR; Biacore T200; anti-FIXa or anti-FX monospecific antibodies captured on MabSelect SuRe Ligand (recombinant Protein A) immobilized on a CM4 chip; natalizumab (human IgG4) on the reference cell; 0, 80, 160, 320, 640 or 1,280 nM human FIXa or FX injected at 30 uL/min; 10 mM HEPES pH 7.4, 150 mM NaCl, 0.05% surfactant P20, 2.5 mM CaCl2. Particulars: both partners purified.

A further test concerns the target T2, human factor X (Homo sapiens, UniProt P00742).
T2 construct: human coagulation factor X (zymogen), light chain; also called FX; source: bought: Enzyme Research Laboratories (purified human coagulation factors; the source is stated for the enzymatic assay)
Described as above. Particulars: both partners purified.

T2 sequence (P00742 41-179, chain 1 of 2): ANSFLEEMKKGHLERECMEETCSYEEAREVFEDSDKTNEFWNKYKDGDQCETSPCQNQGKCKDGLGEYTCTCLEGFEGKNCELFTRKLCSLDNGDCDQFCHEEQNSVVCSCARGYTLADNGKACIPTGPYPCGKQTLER
T2 sequence (P00742 183-488, chain 2 of 2): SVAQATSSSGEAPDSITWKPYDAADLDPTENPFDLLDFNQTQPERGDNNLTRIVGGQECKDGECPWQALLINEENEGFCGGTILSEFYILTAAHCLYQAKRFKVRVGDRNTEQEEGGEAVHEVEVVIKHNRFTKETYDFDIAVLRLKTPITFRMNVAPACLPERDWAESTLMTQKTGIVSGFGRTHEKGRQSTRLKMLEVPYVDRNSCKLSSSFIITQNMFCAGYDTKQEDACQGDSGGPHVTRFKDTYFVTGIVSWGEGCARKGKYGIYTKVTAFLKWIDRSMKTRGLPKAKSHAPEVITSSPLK
T1 sequence (P00740 47-191, chain 1 of 2): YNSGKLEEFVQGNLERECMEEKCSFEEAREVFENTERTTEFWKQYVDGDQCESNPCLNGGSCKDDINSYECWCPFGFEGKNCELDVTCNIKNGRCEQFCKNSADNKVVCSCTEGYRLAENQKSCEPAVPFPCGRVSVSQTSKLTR
T1 sequence (P00740 227-461, chain 2 of 2): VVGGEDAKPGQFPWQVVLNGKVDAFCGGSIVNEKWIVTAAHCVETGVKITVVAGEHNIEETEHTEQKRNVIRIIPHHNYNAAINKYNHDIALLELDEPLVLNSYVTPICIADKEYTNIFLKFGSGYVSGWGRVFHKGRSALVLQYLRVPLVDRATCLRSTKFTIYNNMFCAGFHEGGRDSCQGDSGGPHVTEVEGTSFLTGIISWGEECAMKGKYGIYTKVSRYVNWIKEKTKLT

B1: anti-FIXa monospecific IgG of hBS910 (anti-FIXa heavy chain and common light chain) (antibody, V domains shown)
VH: QVQLVESGGGLVQPGGSLRLSCAASGFTFSYYDIQWVRQAPGKGLEWVSSISPSGQSTYYRREVKGRFTISRDNSKNTLYLQMNSLRAEDTAVYYCARRTGREYGGGWYFDYWGQGTLVTVSS
VL: DIQMTQSPSSLSASVGDRVTITCKASRNIERQLAWYQQKPGQAPELLIYQASRKESGVPDRFSGSRYGTDFTLTISSLQPEDIATYYCQQYSDPPLTFGGGTKVEIK
notes: as the anti-FIXa heavy chain of m1; as the common light chain of m1; The SPR methods say that monospecific antibodies were captured; also called monospecific anti-FIXa antibody; anti-FIXa homodimeric antibody; source: HEK293 cells, transfected; filtrated culture supernatants or Protein A purified antibodies; copies: 2 + 2
For B1, in the test with human factor IXa, the binding result was “binds”.

B2: anti-FX monospecific IgG of hBS910 (anti-FX heavy chain and common light chain) (antibody, V domains shown)
VH: QVQLVQSGSELKKPGASVKVSCKASGYTFTDNNMDWVRQAPGQGLEWMGDINTRSGGSIYNEEFQDRVIMTVDKSTDTAYMELSSLRSEDTATYHCARRKSYGYYLDEWGEGTLVTVSS
VL: B1 VL
notes: as the anti-FX heavy chain of m1; as the common light chain of m1; The SPR methods say that monospecific antibodies were captured; also called monospecific anti-FX antibody; anti-FX homodimeric antibody; source: HEK293 cells, transfected; filtrated culture supernatants or Protein A purified antibodies; copies: 2 + 2
Turning to B2, in the test with human factor X, the binding result is recorded as “binds”.
